Sequences and labels used below:
B1: Actin nucleation-promoting factor WAS (Homo sapiens), P42768 (parent)
chain: MSGGPMGGRPGGRGAPAVQQNIPSTLLQDHENQRLFEMLGRKCLTLATAVVQLYLALPPGAEHWTKEHCGAVCFVKDNPQKSYFIRLYGLQAGRLLWEQELYSQLVYSTPTPFFHTFAGDDCQAGLNFADEDEAQAFRALVQEKIQKRNQRQSGDRRQLPPPPTPANEERRGGLPPLPLHPGGDQGGPPVGPLSLGLATVDIQNPDITSSRYRGLPAPGPSPADKKRSGKKKISKADIGAPSGFKHVSHVGWDPQNGFDVNNLDPDLRSLFSRAGISEAQLTDAETSKLIYDFIEDQGGLEAVRQEMRRQEPLPPPPPPSRGGNQLPRPPIVGGNKGRSGPLPPVPLGIAPPPPTPRGPPPPGRGGPPPPPPPATGRSGPLPPPPPGAGGPPMPPPPPPPPPPPSSGNGPAPPPLPPALVPAGGLAPGGGRGALLDQIRQGIQLNKTPGAPESSALQPPPQSSEGLVGALMHVMQKRSRAIHSSDEGEDQAGDEDEDDEWDD

Holding throughout (details): with wipf1_human WIPF1, O43516
The variants in test [1] derive from B1.
Variants of B1 are the subject of test [2]. This is another data set of the same source.
The variants in test [3] derive from B1. The source holds these as a separate data set.

Chain of wipf1_human WIPF1, O43516 (O43516 whole entry): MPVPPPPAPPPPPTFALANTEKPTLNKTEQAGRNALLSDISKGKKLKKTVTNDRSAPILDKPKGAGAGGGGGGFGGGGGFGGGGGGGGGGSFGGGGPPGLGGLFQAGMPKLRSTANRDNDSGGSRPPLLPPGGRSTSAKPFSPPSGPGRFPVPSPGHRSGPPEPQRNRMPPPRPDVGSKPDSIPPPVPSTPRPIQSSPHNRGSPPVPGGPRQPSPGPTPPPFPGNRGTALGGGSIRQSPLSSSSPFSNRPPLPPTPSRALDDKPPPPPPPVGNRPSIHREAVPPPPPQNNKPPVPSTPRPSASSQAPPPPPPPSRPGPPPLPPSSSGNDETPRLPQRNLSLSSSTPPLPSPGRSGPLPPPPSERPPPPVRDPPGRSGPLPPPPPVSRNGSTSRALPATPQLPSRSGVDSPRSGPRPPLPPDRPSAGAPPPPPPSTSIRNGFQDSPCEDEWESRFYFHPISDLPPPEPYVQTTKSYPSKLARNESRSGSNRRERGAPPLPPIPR

Consider I85T, for which the “effect of a mutation on the interaction” value in test [1] is listed as “with no effect”; in test [2], “disrupting interaction strength”; in test [3], “decreasing interaction strength”.

Take A134T: the “effect of a mutation on the interaction” value is “disrupting interaction strength” in test [1] and “decreasing interaction strength” in test [3].

L46P: the “effect of a mutation on the interaction” value in test [1] was “disrupting interaction strength”; in test [3], “decreasing interaction strength”.

Turning to L35H, the “effect of a mutation on the interaction” value is “with no effect” in test [1], “disrupting interaction strength” in test [2] and “decreasing interaction strength” in test [3].

As to C73Y, the figures for the “effect of a mutation on the interaction” value in test [1] and in test [3] were “disrupting interaction strength” and “decreasing interaction strength”, respectively.

E31K: the “effect of a mutation on the interaction” value in test [1] was “with no effect”; in test [2] it was “disrupting interaction strength”.

The record behind these values is IntAct's records for PubMed 19817875.
